Patent US20250340902A1, “GENE THERAPY FOR BVES-RELATED DISORDERS” (OHIO STATE INNOVATION FOUNDATION, priority 2022, published 2025)

Tests used:
Test in all cases: anti-HA co-IP from muscle, MS; CTRL 0
[1] = biological target: Voltage-dependent L-type calcium channel subunit alpha-1s (Mus musculus) (UniProt Q02789)
[2] = biological target: Lupus La protein homolog (Mus musculus) (UniProt P32067)
[3] = biological target: Obg-like ATPase 1 (Mus musculus) (UniProt Q9CZ30)
[4] = biological target: Elongin-A (Mus musculus) (UniProt Q8CB77)
[5] = biological target: C-1-tetrahydrofolate synthase, cytoplasmic (Mus musculus) (UniProt Q922D8)
[6] = biological target: Nucleolar and coiled-body phosphoprotein 1 (Mus musculus) (UniProt E9Q5C9)
[7] = biological target: Transmembrane protein 43 (Mus musculus) (UniProt Q9DBS1)
[8] = biological target: Nesprin-2 (Mus musculus) (UniProt Q6ZWQ0)
[9] = biological target: Eukaryotic translation initiation factor 3 subunit H (Mus musculus) (UniProt Q91WK2)
[10] = biological target: Leucine-rich PPR motif-containing protein, mitochondrial (Mus musculus) (UniProt Q6PB66)
[11] = biological target: Mannose-binding protein C (Mus musculus) (UniProt P41317)
[12] = biological target: Barrier-to-autointegration factor (Mus musculus) (UniProt O54962)
[13] = biological target: Chromatin-remodeling ATPase INO80 (Mus musculus) (UniProt Q6ZPV2)
[14] = biological target: Tetraspanin-8 (Mus musculus) (UniProt Q8R3G9)
[15] = biological target: Chloride channel protein 1 (Mus musculus) (UniProt Q64347)
[16] = biological target: Transcriptional regulator ATRX (Mus musculus) (UniProt Q61687)
[17] = biological target: ATP-binding cassette sub-family C member 9 (Mus musculus) (UniProt P70170)
[18] = biological target: Plasma membrane calcium-transporting ATPase 1 (Mus musculus) (UniProt G5E829)
[19] = biological target: Triggering receptor expressed on myeloid cells 2 (Mus musculus) (UniProt Q99NH8)
[20] = biological target: RUN and FYVE domain-containing protein 1 (Mus musculus) (UniProt Q8BIJ7)
[21] = biological target: Glutamate dehydrogenase 1, mitochondrial (Mus musculus) (UniProt P26443)
[22] = biological target: Fatty acid-binding protein, adipocyte (Mus musculus) (UniProt P04117)
[23] = biological target: Sorting and assembly machinery component 50 homolog (Mus musculus) (UniProt Q8BGH2)
[24] = biological target: ATP-sensitive inward rectifier potassium channel 11 (Mus musculus) (UniProt Q61743)
[25] = biological target: Sodium/potassium-transporting ATPase subunit alpha-1 (Mus musculus) (UniProt Q8VDN2)
[26] = biological target: Methylcrotonoyl-CoA carboxylase subunit alpha, mitochondrial (Mus musculus) (UniProt Q99MR8)
[27] = biological target: Dual specificity mitogen-activated protein kinase kinase 3 (Mus musculus) (UniProt O09110)
[28] = biological target: ATP-binding cassette sub-family F member 2 (Mus musculus) (UniProt Q99LE6)
[29] = biological target: von Willebrand factor A domain-containing protein 8 (Mus musculus) (UniProt Q8CC88)
[30] = biological target: E3 ubiquitin-protein ligase UBR4 (Mus musculus) (UniProt A2AN08)
[31] = biological target: Extended synaptotagmin-2 (Mus musculus) (UniProt Q3TZZ7)
[32] = biological target: DNA replication licensing factor MCM2 (Mus musculus) (UniProt P97310)
[33] = biological target: U2 small nuclear ribonucleoprotein B″ (Mus musculus) (UniProt Q9CQI7)
[34] = biological target: Exosome complex exonuclease RRP44 (Mus musculus) (UniProt Q9CSH3)
[35] = biological target: Spectrin alpha chain, erythrocytic 1 (Mus musculus) (UniProt P08032)
[36] = biological target: Cullin-1 (Mus musculus) (UniProt Q9WTX6)
[37] = biological target: Splicing factor 3A subunit 1 (Mus musculus) (UniProt Q8K4Z5)
[38] = biological target: Platelet glycoprotein 4 (Mus musculus) (UniProt Q08857)

Chain of Elongin-A (Mus musculus) (Q8CB77 whole entry): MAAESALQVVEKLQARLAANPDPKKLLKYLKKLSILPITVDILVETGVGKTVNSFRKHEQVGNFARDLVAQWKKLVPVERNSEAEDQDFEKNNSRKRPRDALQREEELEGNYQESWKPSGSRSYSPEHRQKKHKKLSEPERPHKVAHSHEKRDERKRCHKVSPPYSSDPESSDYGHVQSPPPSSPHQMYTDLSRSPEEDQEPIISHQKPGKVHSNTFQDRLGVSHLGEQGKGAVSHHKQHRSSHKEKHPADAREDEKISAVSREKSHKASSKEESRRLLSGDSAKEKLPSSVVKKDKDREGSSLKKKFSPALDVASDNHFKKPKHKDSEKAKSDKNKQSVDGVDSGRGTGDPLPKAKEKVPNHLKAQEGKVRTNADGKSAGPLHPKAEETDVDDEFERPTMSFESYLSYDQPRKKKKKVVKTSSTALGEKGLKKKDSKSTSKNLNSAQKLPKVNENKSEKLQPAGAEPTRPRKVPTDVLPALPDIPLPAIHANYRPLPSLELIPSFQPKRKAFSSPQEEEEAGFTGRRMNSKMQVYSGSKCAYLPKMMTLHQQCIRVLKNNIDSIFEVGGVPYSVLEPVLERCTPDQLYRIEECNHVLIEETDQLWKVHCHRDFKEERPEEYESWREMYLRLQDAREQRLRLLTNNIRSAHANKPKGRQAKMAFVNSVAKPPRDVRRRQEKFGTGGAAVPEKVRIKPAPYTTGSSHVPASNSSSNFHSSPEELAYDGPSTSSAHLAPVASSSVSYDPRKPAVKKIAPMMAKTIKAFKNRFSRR
Chain of ATP-binding cassette sub-family F member 2 (Mus musculus) (Q99LE6 whole entry): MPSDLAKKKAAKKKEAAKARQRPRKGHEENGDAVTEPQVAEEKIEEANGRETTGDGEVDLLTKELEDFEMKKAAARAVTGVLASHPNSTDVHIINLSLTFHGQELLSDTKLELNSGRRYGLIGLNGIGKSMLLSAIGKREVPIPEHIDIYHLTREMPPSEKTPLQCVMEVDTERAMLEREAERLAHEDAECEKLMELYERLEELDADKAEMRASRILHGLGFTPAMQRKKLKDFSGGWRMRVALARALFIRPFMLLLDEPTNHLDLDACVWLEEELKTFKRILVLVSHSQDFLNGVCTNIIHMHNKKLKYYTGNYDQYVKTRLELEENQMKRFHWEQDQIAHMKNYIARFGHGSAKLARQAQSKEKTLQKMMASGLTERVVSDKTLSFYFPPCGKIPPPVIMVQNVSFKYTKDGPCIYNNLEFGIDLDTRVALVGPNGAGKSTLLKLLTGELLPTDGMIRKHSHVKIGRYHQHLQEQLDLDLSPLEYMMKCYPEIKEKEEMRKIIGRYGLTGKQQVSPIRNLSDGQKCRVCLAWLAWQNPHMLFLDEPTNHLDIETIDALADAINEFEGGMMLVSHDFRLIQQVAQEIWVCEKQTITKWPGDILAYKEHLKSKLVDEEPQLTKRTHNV
Chain of Cullin-1 (Mus musculus) (Q9WTX6 whole entry): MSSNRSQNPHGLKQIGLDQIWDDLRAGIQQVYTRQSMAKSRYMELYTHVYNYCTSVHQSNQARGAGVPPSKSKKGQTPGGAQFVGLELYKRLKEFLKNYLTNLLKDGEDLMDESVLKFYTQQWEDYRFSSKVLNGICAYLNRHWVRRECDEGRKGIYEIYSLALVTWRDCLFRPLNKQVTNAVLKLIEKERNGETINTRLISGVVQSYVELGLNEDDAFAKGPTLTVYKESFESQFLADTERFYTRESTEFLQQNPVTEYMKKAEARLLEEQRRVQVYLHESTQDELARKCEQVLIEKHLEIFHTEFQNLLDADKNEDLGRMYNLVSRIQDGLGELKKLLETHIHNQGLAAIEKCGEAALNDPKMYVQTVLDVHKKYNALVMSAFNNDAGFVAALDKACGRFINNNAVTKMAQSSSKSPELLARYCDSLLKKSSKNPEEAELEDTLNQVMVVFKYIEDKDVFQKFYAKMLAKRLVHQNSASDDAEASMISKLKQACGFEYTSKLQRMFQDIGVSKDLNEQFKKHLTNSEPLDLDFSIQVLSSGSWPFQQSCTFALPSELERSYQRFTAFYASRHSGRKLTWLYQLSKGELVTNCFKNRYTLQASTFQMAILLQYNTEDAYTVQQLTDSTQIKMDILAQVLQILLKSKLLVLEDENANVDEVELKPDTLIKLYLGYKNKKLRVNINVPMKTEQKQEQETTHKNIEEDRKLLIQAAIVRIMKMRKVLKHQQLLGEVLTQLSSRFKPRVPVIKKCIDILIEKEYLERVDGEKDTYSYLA
Chain of Spectrin alpha chain, erythrocytic 1 (Mus musculus) (P08032 whole entry): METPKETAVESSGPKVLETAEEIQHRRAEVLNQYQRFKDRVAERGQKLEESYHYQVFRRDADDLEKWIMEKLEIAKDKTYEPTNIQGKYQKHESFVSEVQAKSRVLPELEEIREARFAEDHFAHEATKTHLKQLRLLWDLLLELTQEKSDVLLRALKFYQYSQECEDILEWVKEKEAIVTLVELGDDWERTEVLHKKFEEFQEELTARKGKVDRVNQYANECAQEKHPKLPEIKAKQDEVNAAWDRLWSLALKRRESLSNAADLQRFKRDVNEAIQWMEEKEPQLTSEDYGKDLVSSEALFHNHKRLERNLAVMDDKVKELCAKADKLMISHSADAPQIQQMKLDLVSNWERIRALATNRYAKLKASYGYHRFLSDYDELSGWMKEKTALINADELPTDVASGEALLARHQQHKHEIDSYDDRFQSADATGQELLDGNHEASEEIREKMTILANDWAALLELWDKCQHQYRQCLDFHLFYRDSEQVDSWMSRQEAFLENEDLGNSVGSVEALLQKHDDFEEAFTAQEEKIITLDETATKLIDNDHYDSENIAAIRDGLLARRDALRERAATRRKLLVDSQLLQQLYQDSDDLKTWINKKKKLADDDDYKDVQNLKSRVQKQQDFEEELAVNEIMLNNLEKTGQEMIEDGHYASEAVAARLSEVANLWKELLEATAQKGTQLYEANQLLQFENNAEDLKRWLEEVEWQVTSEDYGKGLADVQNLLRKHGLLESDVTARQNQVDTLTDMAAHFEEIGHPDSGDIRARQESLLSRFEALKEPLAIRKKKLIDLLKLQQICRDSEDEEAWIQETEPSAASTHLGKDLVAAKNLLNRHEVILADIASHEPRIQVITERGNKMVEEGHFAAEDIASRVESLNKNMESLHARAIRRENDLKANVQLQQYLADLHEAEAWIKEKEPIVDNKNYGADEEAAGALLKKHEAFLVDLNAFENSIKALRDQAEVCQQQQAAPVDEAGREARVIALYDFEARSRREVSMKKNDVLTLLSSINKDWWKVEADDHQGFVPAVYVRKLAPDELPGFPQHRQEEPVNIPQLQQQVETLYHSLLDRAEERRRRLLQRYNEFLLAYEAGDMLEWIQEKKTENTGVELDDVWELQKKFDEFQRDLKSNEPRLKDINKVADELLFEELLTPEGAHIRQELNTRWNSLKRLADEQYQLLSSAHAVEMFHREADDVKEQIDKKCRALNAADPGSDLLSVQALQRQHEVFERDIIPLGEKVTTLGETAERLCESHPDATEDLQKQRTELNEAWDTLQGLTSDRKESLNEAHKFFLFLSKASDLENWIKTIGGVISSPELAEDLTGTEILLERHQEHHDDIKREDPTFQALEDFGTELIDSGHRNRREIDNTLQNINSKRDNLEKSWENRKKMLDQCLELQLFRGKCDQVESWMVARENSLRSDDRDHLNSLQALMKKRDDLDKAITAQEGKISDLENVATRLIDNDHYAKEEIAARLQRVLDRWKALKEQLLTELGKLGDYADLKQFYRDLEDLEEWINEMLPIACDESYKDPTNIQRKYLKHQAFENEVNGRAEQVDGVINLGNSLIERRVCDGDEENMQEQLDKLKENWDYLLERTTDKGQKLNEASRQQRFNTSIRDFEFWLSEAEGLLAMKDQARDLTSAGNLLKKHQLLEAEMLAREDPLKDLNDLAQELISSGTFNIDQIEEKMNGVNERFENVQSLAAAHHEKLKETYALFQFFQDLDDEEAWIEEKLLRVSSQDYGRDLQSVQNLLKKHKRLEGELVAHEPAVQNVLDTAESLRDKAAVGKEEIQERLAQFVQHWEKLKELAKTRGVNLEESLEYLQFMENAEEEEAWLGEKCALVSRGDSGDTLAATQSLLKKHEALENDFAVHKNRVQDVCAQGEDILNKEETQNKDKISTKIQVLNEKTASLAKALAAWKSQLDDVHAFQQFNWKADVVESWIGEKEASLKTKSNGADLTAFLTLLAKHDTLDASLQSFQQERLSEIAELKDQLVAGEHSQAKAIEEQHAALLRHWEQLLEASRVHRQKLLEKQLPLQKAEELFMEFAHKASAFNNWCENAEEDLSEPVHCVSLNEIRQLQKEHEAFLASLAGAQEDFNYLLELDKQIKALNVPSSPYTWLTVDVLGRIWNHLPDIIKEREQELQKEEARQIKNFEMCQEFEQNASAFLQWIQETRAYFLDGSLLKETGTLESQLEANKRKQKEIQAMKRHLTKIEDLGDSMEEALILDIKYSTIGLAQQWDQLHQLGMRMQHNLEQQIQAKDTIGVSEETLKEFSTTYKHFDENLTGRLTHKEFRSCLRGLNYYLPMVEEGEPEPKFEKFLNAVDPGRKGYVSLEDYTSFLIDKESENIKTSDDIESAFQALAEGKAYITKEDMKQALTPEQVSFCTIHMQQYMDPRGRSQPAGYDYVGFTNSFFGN
Chain of Dual specificity mitogen-activated protein kinase kinase 3 (Mus musculus) (O09110 whole entry): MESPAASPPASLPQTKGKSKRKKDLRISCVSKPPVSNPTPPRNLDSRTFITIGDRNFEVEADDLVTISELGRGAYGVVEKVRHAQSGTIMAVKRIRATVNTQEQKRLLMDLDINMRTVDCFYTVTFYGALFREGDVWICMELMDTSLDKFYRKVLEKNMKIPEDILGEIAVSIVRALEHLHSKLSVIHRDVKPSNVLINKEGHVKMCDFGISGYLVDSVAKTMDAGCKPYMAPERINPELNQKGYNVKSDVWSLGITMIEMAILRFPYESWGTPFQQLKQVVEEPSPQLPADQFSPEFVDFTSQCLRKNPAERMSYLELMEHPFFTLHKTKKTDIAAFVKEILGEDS
Chain of Barrier-to-autointegration factor (Mus musculus) (O54962 whole entry): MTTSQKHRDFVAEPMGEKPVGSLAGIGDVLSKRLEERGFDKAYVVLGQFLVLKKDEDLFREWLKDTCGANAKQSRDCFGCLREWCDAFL

Substance “human BVES fused with 3xHA tag (from UniProt Q8NE79 1-360)” has an AAV9-BVES-HA (IP-MS count) [1] of 13, an AAV9-BVES-HA (IP-MS count) [2] of 2 and an AAV9-BVES-HA (IP-MS count) [3] of 2. It also gave an AAV9-BVES-HA (IP-MS count) [4] of 3, an AAV9-BVES-HA (IP-MS count) [5] of 2 and an AAV9-BVES-HA (IP-MS count) [6] of 3. It also gave an AAV9-BVES-HA (IP-MS count) [7] of 2, an AAV9-BVES-HA (IP-MS count) [8] of 2 and an AAV9-BVES-HA (IP-MS count) [9] of 2. For the same substance, the AAV9-BVES-HA (IP-MS count) [10] was 8, the AAV9-BVES-HA (IP-MS count) [11] was 2 and the AAV9-BVES-HA (IP-MS count) [12] was 3. For the same substance, the AAV9-BVES-HA (IP-MS count) [13] was 2, the AAV9-BVES-HA (IP-MS count) [14] was 2 and the AAV9-BVES-HA (IP-MS count) [15] was 13. It also gave an AAV9-BVES-HA (IP-MS count) [16] of 6, an AAV9-BVES-HA (IP-MS count) [17] of 14 and an AAV9-BVES-HA (IP-MS count) [18] of 34. For the same substance, the AAV9-BVES-HA (IP-MS count) [19] was 2, the AAV9-BVES-HA (IP-MS count) [20] was 5 and the AAV9-BVES-HA (IP-MS count) [21] was 6. The AAV9-BVES-HA (IP-MS count) [22] was 2, the AAV9-BVES-HA (IP-MS count) [23] was 5 and the AAV9-BVES-HA (IP-MS count) [24] was 4. For the same substance, the AAV9-BVES-HA (IP-MS count) [25] was 12, the AAV9-BVES-HA (IP-MS count) [26] was 3 and the AAV9-BVES-HA (IP-MS count) [27] was 3. The AAV9-BVES-HA (IP-MS count) [28] was 2, the AAV9-BVES-HA (IP-MS count) [29] was 4 and the AAV9-BVES-HA (IP-MS count) [30] was 4. The AAV9-BVES-HA (IP-MS count) [31] was 2, the AAV9-BVES-HA (IP-MS count) [32] was 4 and the AAV9-BVES-HA (IP-MS count) [33] was 2. The AAV9-BVES-HA (IP-MS count) [34] was 2, the AAV9-BVES-HA (IP-MS count) [35] was 27 and the AAV9-BVES-HA (IP-MS count) [36] was 2. The AAV9-BVES-HA (IP-MS count) [37] was 4 and the AAV9-BVES-HA (IP-MS count) [38] was 2.
